The text below walks through data of paper PMC7538599.

One may read the stoichiometry N as a count of units in the complex or per binding partner.

The test deals with GltPh, archaeal homolog of excitatory amino acid transporters from Pyrococcus horikoshii (Pyrococcus horikoshii) (UniProt O59010). Description: high-speed atomic force microscopy (HS-AFM) imaging; purified GltPh reconstituted in DOPC/DOPE/DOPS 8:1:1 membranes, spread on mica, imaged in buffer solution in amplitude modulation mode; unlabeled protein.

“GltPh, archaeal homolog of excitatory amino acid transporters from Pyrococcus horikoshii (from UniProt O59010 1-425) (natural protein)” registered a stoichiometry N of 3.
